From publication PMC7617692, “Structural evolution of fibril polymorphs during amyloid assembly” (Cell, 2023) come the findings set out here.

Bridge positions count the residues as written; N and C are the ends. Ends that are not written are not given here.

The data set concerns the molecule itself. The experiment in a line: cryo-EM structure; fibrils grown quiescently in glass vials, 30 uM peptide, 20 mM ammonium acetate pH 6.8, room temperature; sampled at 3 weeks (lag phase), undiluted; helical reconstruction; repeated with a second reaction.

B1: human islet amyloid polypeptide S20G variant (IAPP-S20G) (peptide)
chain: KCNTATCATQRLANFLVHSGNNFGAILSSTNVGSNTY-NH2
modifications: disulfide 2-7; N-terminus assumed
SMILES: CC[C@H](C)[C@H](NC(=O)[C@H](C)NC(=O)CNC(=O)[C@H](Cc1ccccc1)NC(=O)[C@H](CC(N)=O)NC(=O)[C@H](CC(N)=O)NC(=O)CNC(=O)[C@H](CO)NC(=O)[C@H](Cc1c[nH]cn1)NC(=O)[C@@H](NC(=O)[C@H](CC(C)C)NC(=O)[C@H](Cc1ccccc1)NC(=O)[C@H](CC(N)=O)NC(=O)[C@H](C)NC(=O)[C@H](CC(C)C)NC(=O)[C@H](CCCNC(=N)N)NC(=O)[C@H](CCC(N)=O)NC(=O)[C@@H](NC(=O)[C@H](C)NC(=O)[C@@H]1CSSC[C@H](NC(=O)[C@@H](N)CCCCN)C(=O)N[C@@H](CC(N)=O)C(=O)N[C@@H]([C@@H](C)O)C(=O)N[C@@H](C)C(=O)N[C@@H]([C@@H](C)O)C(=O)N1)[C@@H](C)O)C(C)C)C(=O)N[C@@H](CC(C)C)C(=O)N[C@@H](CO)C(=O)N[C@@H](CO)C(=O)N[C@H](C(=O)N[C@@H](CC(N)=O)C(=O)N[C@H](C(=O)NCC(=O)N[C@@H](CO)C(=O)N[C@@H](CC(N)=O)C(=O)N[C@H](C(=O)N[C@@H](Cc1ccc(O)cc1)C(N)=O)[C@@H](C)O)C(C)C)[C@@H](C)O
notes: islet amyloid polypeptide (IAPP, amylin), human, 37-residue hormone, familial early-onset T2D variant S20G; Assembles into amyloid fibrils of two, three or four protofilaments; the number of chains in a fibril is open-ended; Purity >95% by analytical HPLC, mass 3873.3 Da; also called hIAPP-S20G; S20G-IAPP; source: synthetic peptide (Fmoc solid phase, oxidised, reverse-phase HPLC purified)
For B1, the binding result is on record as “binds”.
